Test results taken from publication PMC9927553.
Where a chain is given by its changes, count along the chain named.

Tests used:
[1] = target: T1, LexA (Salmonella) (Salmonella enterica serotype Agona strain 47SA97) (UniProt B5F1Q6); test: EMSA; settings: EMSA: 40 ng DNA probe, 0-600 ng LexA, binding buffer E (composition not stated; Thermo E33075 EMSA kit), 10 uL, 20 min on ice; 6% native Tris-glycine PAGE …
T1 sequence: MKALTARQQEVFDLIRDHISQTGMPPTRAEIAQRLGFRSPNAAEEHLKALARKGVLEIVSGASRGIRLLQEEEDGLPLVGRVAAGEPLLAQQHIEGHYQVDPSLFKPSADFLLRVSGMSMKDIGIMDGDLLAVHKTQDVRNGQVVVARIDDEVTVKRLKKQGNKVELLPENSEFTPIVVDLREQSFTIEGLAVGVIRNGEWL

[2] = target: T2, LexA (E. coli) (Escherichia coli MG1655) (UniProt P0A7C2); test: EMSA; settings: EMSA: 40 ng DNA probe, 0-600 ng LexA, binding buffer E (composition not stated; Thermo E33075 EMSA kit), 10 uL, 20 min on ice; 6% native Tris-glycine PAGE …
T2 sequence: T1 sequence with L56I, D74E, S108N, T175K, E183Q, E200D

Sequence | binding [1] | binding [2]
ACACACCTGATTTATTCACTGATTAACTTTGTCATCAATCATAAATACCATGACTTTTTGATAATGCAACGCCAAATAAGTTGTTTTTTTACAGTATCATTTTATGGTGCTATGAAGATTTGCATTTCTGAACGATAATCTATAATCGGTTACATATTAATCAGGAGGCGT (double strand) [PsgaDC* probe] | no binding | no binding
ACACACCTGATTTATTCACTGATTAACTTTGTCATCAATCATAAATACCATGACTTTTTGATAATGCAACGCCAAATACTGTGTTTTTTTACAGTATCATTTTATGGTGCTATGAAGATTTGCATTTCTGAACGATAATCTATAATCGGTTACATATTAATCAGGAGGCGT (double strand) [PsgaDC probe] | binds | binds
AGTTGTTCCGCAGTAGCCATTATTCAATCTCCATAAGACGGGGCAACTTTACCAATTTTATACAATAAAGTCTGTGTAGTATGACAGGGTTTAAGCACTTAATCCCCTCTAGAATTTTGTACACTCACCACCCCTACATGATTATAAATAGTCGTTCTAGATACACCATATCGCCTAGCAACA (double strand) [PsgiAT probe] | no binding | no binding
